The record followed here is patent US20210102933.

The subject of series [1] is T1, FRET peptide substrate EDANS-A-L-E-V-L-F-Q/G-P-K-DABCYL.
T1 sequence: ALEVLFXPK

Series [2] relates to FTC-casein.

Regarding human rhinovirus 3C protease, the “fluorescent signal upon cleavage of the FRET peptide substrate in microwells (18 hours, 100 µg/mL peptide)” value in series [1] was “The secreted enzyme successfully cleaved the substrate, resulting in a fluorescent signal”.

On to trypsin, for which, in series [2], the “fluorescent signal in trypsin cleavage assay in microwells (0.5 µg/ml trypsin, 10 µg/ml FTC-casein, 1 and 18 hours)” value is “the intensity of the observed fluorescent signal was dependent on the time of incubation”; the “fluorescent signal in trypsin cleavage assay in microwells (0.05, 0.5 and 5 µg/ml trypsin, 10 µg/ml FTC-casein, 1 hour)” value is listed as “the intensity of the observed fluorescent signal was dependent on the concentration of trypsin in the microwells”.
